Experimental data as given in publication PMC4895385, “The ubiquitin E3 ligase TRAF6 exacerbates pathological cardiac hypertrophy via TAK1-dependent signalling” (Nature Communications, 2016).

Molecular target: T1, FLAG-tagged TAK1 (pcDNA5-FLAG-TAK1) (human, UniProt O43318-2 1-579)
T1 construct: TAK1 (MAP3K7), human, gene cloned into pcDNA5-FLAG-C1; the truncates end at residue 579, so the 579-residue isoform is meant; source: HEK293T, transfected, in lysate; immunopurified from HEK293T (eluted with FLAG peptide) for the GST pull-down
T1 sequence (looked up): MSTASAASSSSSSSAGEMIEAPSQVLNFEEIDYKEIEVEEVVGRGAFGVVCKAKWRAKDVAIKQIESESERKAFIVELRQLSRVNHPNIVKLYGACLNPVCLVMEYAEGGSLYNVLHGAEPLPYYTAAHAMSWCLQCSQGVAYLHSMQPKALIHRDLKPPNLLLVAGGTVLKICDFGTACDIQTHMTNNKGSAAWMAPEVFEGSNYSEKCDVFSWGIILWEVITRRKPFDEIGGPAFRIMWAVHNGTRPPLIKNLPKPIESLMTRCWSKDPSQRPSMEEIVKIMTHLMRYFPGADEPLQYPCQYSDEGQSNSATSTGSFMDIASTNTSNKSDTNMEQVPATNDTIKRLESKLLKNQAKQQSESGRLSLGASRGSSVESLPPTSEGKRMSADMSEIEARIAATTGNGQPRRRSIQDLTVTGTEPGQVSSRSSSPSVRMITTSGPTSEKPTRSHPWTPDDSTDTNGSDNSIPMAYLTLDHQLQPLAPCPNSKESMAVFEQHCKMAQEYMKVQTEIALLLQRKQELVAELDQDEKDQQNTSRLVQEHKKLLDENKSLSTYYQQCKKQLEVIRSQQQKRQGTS
Assay: pull-down; GST-TRAF6 retained on glutathione-Sepharose 4B beads, incubated 4 h at 4 °C with immunopurified Flag-TAK1 from HEK293T cells; eluted with 20 mM reduced glutathione; blot with anti-FLAG
Details: both partners purified

B1: GST-tagged TRAF6 (pGEX-4T-1-GST-TRAF6) (natural protein, human, UniProt Q9Y4K3 1-522, looked up)
chain: MSLLNCENSCGSSQSESDCCVAMASSCSAVTKDDSVGGTASTGNLSSSFMEEIQGYDVEFDPPLESKYECPICLMALREAVQTPCGHRFCKACIIKSIRDAGHKCPVDNEILLENQLFPDNFAKREILSLMVKCPNEGCLHKMELRHLEDHQAHCEFALMDCPQCQRPFQKFHINIHILKDCPRRQVSCDNCAASMAFEDKEIHDQNCPLANVICEYCNTILIREQMPNHYDLDCPTAPIPCTFSTFGCHEKMQRNHLARHLQENTQSHMRMLAQAVHSLSVIPDSGYISEVRNFQETIHQLEGRLVRQDHQIRELTAKMETQSMYVSELKRTIRTLEDKVAEIEAQQCNGIYIWKIGNFGMHLKCQEEEKPVVIHSPGFYTGKPGYKLCMRLHLQLPTAQRCANYISLFVHTMQGEYDSHLPWPFQGTIRLTILDQSEAPVRQNHEEIMDAKPELLAFQRPTIPRNPKGFGYVTFMHLEALRQRTFIKDDTLLVRCEVSTRFDMGSLRREGFQPRSTDAGV
notes: TRAF6, human, gene cloned into pGEX-4T-1; pGEX-4T-1 normally places GST at the N-terminus (surmised); source: E. coli Rosetta (DE3), retained on glutathione-Sepharose 4B beads and washed
B1: binds.
